According to PMC9828637, “Pol32, an accessory subunit of DNA polymerase delta, plays an essential role in genome stability and pathogenesis of Candida albicans” (Gut Microbes, 2023):

Molecular target: T1, CaPol32 (wild type, GST tag cleaved) (C. albicans, UniProt A0A1D8PDM8 1-403)
T1 construct: Pol32, smallest subunit of DNA polymerase delta, C. albicans SC5314; ORF amplified from genomic DNA with primers NAP39 (start codon) and NAP40 (stop codon); length 403 aa, 46.0 kDa; source: S. cerevisiae protease deficient strain, purified (glutathione-Sepharose 4B, GST cleaved with PreScission protease); not shown: GST, N-terminal, cleaved
T1 sequence (looked up): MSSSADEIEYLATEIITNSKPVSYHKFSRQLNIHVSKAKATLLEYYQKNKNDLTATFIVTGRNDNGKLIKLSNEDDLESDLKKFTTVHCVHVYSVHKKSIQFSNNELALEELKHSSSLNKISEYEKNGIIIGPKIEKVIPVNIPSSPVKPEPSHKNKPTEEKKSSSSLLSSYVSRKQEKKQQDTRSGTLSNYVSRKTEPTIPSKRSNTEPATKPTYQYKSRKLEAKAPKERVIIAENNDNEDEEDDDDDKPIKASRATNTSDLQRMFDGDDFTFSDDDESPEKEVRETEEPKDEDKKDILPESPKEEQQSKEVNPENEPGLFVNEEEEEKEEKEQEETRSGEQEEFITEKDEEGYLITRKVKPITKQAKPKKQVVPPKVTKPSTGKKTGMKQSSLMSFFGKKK
Assay: ITC; MicroCal PEAQ-ITC, 25°C, 20 mM HEPES pH 7.4, 150 mM NaCl; 20 μM CaPol32 or CaPol32 (F398A, F399A) in the cell, 250 μM CaPCNA in the syringe, 25 injections of 1.5 μl; one-site binding model
Conditions: both partners purified

B1: CaPCNA (natural protein, C. albicans, UniProt Q5AMN0 1-259, looked up)
chain: MLEGKFEEAALLKKVVEAIKDCVKKCNFNCSEHGITVQAVDDSRVLLVSLLIGQTSFSEYRCDRDVTLGIDLESFSKIIKSANNEDFLTLLAEDSPDQIMAILEEKQKEKISEYSLKLMDIDSEFLQIDDMEYDAVVNMPSSDFAKLVRDLKNLSESLRVVVTKDSVKFTSEGDSGSGSVILKPYTNLKNERESVTISLDDPVDLTFGLKYLNDIVKAATLSDVITIKLADKTPALFEFKMQSGGYLRFYLAPKFDDDE
notes: PCNA (proliferating cell nuclear antigen, DNA sliding clamp), C. albicans; it calls PCNA trimeric without measuring this here; also called proliferating cell nuclear antigen of C. albicans; source: E. coli BL21 DE3, purified (glutathione-Sepharose 4B, GST cleaved with PreScission protease)
B1 was tested. Which Kd did it give?
The Kd was about 6.75 µM.

What about the dH of the same binder?
Its dH is about -27 kcal/mol.

And the “stoichiometry N” value?
The value was 1 CaPol32 per PCNA trimer.
